Source: paper doi:10.1101/2021.07.23.453529, “TELSAM polymers accelerate crystallization of fused target proteins by stabilizing minimal crystal contacts and in the absence of direct inter-TELSAM contacts” (bioRxiv, 2021)

B1: 3TEL-rigid-DARPin (other, human)
chain: GSIRLPAHLRLQPIYWSRDDVAQWLKWAENEFSLRPIDSNTFEMNGKALLLLTKEDFRYRSPHSGDELYELLQHILKQRPGGGGSTSIRLPAHLRLQPIYWSRDDVAQWLKWAENEFSLRPIDSNTFEMNGKALLLLTKEDFRYRSPHSGDVLYELLQHILKQRPGGGGSTSIRLPAHLRLQPIYWSRDDVAQWLKWAENEFSLRPIDSNTFEMNGKALLLLTKEDFRYRSPHSGDVLYELLQHILKQRDLEAEAAAAEDLGKKLLEAARAGQDDEVRILMANGADVNATDNDGYTPLHLAASNGHLEIVEVLLKNGADVNASDLTGITPLHAAAATGHLEIVEVLLKHGADVNAYDNDGHTPLHLAAKYGHLEIVEVLLKHGADVNAQDKFGKTAFDISIDNGNEDLAEILQKLN
notes: residue printed before TEL S47, left after SUMO cleavage; first TEL-SAM domain of 3TEL (human ETS variant transcription factor 6), the only one with V112E; flexible inter-TELSAM linker, as in PDB ID 2QAR; second TEL-SAM domain of 3TEL (human ETS variant transcription factor 6); third TEL-SAM domain of 3TEL (human ETS variant transcription factor 6); rigid alpha-helical connection between 3TEL and …
B2: 3TEL (three tandem TELSAM monomers) of 3TEL-rigid-DARPin (domain or fragment, human)
chain: GSIRLPAHLRLQPIYWSRDDVAQWLKWAENEFSLRPIDSNTFEMNGKALLLLTKEDFRYRSPHSGDELYELLQHILKQRPGGGGSTSIRLPAHLRLQPIYWSRDDVAQWLKWAENEFSLRPIDSNTFEMNGKALLLLTKEDFRYRSPHSGDVLYELLQHILKQRPGGGGSTSIRLPAHLRLQPIYWSRDDVAQWLKWAENEFSLRPIDSNTFEMNGKALLLLTKEDFRYRSPHSGDVLYELLQHILKQR
notes: residue printed before TEL S47, left after SUMO cleavage; first TEL-SAM domain of 3TEL (human ETS variant transcription factor 6), the only one with V112E; flexible inter-TELSAM linker, as in PDB ID 2QAR; second TEL-SAM domain of 3TEL (human ETS variant transcription factor 6); third TEL-SAM domain of 3TEL (human ETS variant transcription factor 6); written apart for the contacts between the two …
B3: 1TEL (single TELSAM monomer) of 1TEL-flex-vWa (domain or fragment, human)
chain: GSIALPAHLRLQPIYWSRDDVAQWLKWAENEFSLRPIDSNTFEMNGKALLLLTKEDFRYRSPHSGDELYELLQHILAQ
notes: residue printed before TEL S47, left after SUMO cleavage; sterile alpha motif (SAM) domain of human ETS variant transcription factor 6 (TEL); Stood in the crystal joined on one chain with the vWa domain through one alanine; written apart for the contacts between the two parts
B4: DARPin (Designed Ankyrin Repeat Protein) of 3TEL-rigid-DARPin (designed binder)
chain: DLGKKLLEAARAGQDDEVRILMANGADVNATDNDGYTPLHLAASNGHLEIVEVLLKNGADVNASDLTGITPLHAAAATGHLEIVEVLLKHGADVNAYDNDGHTPLHLAAKYGHLEIVEVLLKHGADVNAQDKFGKTAFDISIDNGNEDLAEILQKLN
notes: Designed Ankyrin Repeat Protein (DARPin), modelled from PDB ID 4J7W; Stood in the crystal joined on one chain with 3TEL; also called DAPRin; source: E. coli BL21(DE3), purified, as part of the 3TEL-rigid-DARPin chain

Key:
[1] = target: the molecule itself; experiment: crystal structure; 3TEL-rigid-DARPin, 15 mg/mL, sitting drop, HEPES pH 7.3-7.4 with PEG; P1211, 2 molecules per asymmetric unit; contacts within the polymer and the crystal lattice
[2] = target: the molecule itself; experiment: crystal structure; 1TEL-flex-vWa, 20 mg/mL, sitting drop, 100 mM Bis-Tris, pH 5.7, 3.0 M NaCl; P65, 1 molecule per asymmetric unit; contacts within the polymer and the crystal lattice
[3] = target: B2; experiment: crystal structure; 3TEL-rigid-DARPin, 15 mg/mL, sitting drop, HEPES pH 7.3-7.4 with PEG; P1211, 2 molecules per asymmetric unit; contacts within the polymer and the crystal lattice; conditions: both partners purified

Binder	binding result [1]	further results
B1	binds	–
B2	binds	–
B3	–	binding result [2]: binds
B4	–	binding result [3]: binds
